From patent US20200079865A1 (Bristol-Myers Squibb, published 2020)

Key:
[1] = biological target: T1, human GITR, membrane bound (on activated human T cells, 3A9-hGITR cells, huGITR knock-in mouse T cells) (human, UniProt Q9Y5U5 26-241); assay: FACS on PHA-activated human CD4+ and CD8+ T cells, anti-HA detection
T1 construct: also called TNFRSF18
T1 sequence: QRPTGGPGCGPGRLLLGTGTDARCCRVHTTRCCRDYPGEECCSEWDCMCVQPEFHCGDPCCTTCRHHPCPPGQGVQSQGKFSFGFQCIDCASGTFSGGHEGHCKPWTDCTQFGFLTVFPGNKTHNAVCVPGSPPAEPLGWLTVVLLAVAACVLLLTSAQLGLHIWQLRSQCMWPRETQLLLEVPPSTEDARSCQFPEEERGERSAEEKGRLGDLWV
Excerpt: (§1) The samples were acquired on a FACS Canto Flow Cytometer (BD, San Jose) and analyzed with FlowJo software (Tree Star, Inc, Ashland, Oreg.).

[2] = biological target: T1, human GITR, membrane bound (on …); assay: FACS competition on PHA-activated human T cells, pre-bound GITR-L against 0.5 ug/ml 28F3-hIgG1; partial inhibition
Excerpt: as §1

[3] = biological target: T1, human GITR, membrane bound (on …); assay: FACS (MFI, PE anti-HA tag) on PHA-activated human T cells, CD8 column; the table's row head reads IC50, the text calls it EC50; unit from the axis
Excerpt: as §1

[4] = biological target: T1, human GITR, membrane bound (on …); assay: FACS competition on activated human CD4+ T cells: pre-bound GITR-L titrated, then 28F3-hIgG1 at a fixed 0.5 ug/mL, detected with PE anti-human IgG Fc; unit from the axis
Excerpt: as §1

[5] = biological target: T1, human GITR, membrane bound (on …); assay: FACS (MFI, PE anti-HA tag) on PHA-activated human T cells, CD4 column; the table's row head reads IC50, the text calls it EC50; unit from the axis
Excerpt: as §1

EC50 [1]: 0.016 µg/mL
IC50 [2]: 0.0024 µg/mL
EC50 [3]: 0.0163 µg/mL
IC50 [4]: 0.00244 µg/mL
EC50 [5]: 0.016 µg/mL
B1: recombinant hGITR-L trimer (R&D Systems #6987-GL) (ligand)
chain: LQLETAKEPCMAKFGPLPSKWQMASSEPPCVNKVSDWKLEILQNGLYLIYGQVAPNANYNDVAPFEVRLYKNKDMIQTLTNKSKIQNVGGTYELHVGDTIDLIFNSEHQVLKNNTYWGIILLANPQFIS
notes: Bought soluble trimer, detected through a hemagglutinin (HA) tag; also called GITR Ligand; rhGITR-L
